These results are taken from article doi:10.1101/2024.06.03.596960 (bioRxiv, 2024).

In data set [1] the target is biotinylated ^AviSKP1-FBXO22(12-403) (UniProt P63208). The data set is described as follows: BLI. In general terms: BLI is a label-free optical method that tracks binding on a fibre tip over time.
The target of data set [2] is BACH1 BTB domain (residues 7-128), wild type, tag-free (UniProt O14867). The data set is described as follows: SEC-MALS. In general terms: In gel filtration, larger molecules generally elute earlier.
Data set [3] addresses biotinylated ^AviSKP1-FBXO22(12-403) (UniProt P63208). The data set is described as follows: SPR. (In general: Surface plasmon resonance follows binding to a sensor surface in real time, without labels.)
The target in data set [4] is BACH1^BTB A53V mutant (cancer-associated, TCGA) (UniProt O14867). The data set is described as follows: SEC-MALS.
Another data set has as its target BACH1^BTB E12R (UniProt O14867). Put plainly: SEC-MALS.
A further data set deals with BACH1^BTB F9A (UniProt O14867). Put plainly: SEC-MALS.
A further data set has as its target BACH1^BTB S13A (UniProt O14867). Put plainly: SEC-MALS.
The target of a further data set is BACH1^BTB S13D (UniProt O14867). Put plainly: SEC-MALS.
The target of a further data set is BACH1^BTB Y11A (UniProt O14867). Put plainly: SEC-MALS.
A further data set addresses BACH1^BTB Y11F (UniProt O14867). Put plainly: SEC-MALS.
Data set [5] addresses BACH1^BTB Y11H mutant (cancer-associated, TCGA) (UniProt O14867). The data set is described as follows: SEC-MALS.
The target in a further data set is BTFA-modified BACH1^BTB (UniProt O14867).
For data set [6], the target named is BACH1 BTB domain (residues 7-128), wild type, tag-free (UniProt O14867). The data set is described as follows: NMR titration.
Another data set has as its target His10-TEV-BACH1^BTB (UniProt O14867). The data set is described as follows: AlphaScreen or HTRF.
The data set “mass photometry” concerns the molecule itself. The data set is described as follows: mass photometry.
Data set [7] addresses SKP1-FBXO22 heterodimer, wild type, tag-free (UniProt P63208). Put plainly: mass photometry.

Several values for one entry are separate records, joined by “and”; a condition that tells them apart may be missing. Identical values can stand only once.

Chain of biotinylated ^AviSKP1-FBXO22(12-403) (P63208 2-163, chain 1 of 2): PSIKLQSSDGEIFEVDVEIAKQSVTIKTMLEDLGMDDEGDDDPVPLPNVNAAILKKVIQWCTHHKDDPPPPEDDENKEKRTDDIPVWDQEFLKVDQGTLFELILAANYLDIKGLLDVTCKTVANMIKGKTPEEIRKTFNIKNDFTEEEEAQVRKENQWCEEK
Chain of biotinylated ^AviSKP1-FBXO22(12-403) (Q8NEZ5 12-403, chain 2 of 2, further chain): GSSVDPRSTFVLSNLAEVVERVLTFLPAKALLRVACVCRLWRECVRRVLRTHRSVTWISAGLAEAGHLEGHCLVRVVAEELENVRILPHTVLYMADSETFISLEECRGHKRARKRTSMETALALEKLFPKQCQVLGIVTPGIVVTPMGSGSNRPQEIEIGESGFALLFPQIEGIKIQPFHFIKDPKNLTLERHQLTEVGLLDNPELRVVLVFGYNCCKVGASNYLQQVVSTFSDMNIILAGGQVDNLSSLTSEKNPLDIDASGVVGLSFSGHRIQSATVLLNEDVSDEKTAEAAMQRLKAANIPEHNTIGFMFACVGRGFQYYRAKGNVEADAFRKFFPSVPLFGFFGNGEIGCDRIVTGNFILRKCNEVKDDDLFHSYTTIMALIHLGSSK
Chain of SKP1-FBXO22 heterodimer, wild type, tag-free (UniProt P63208) (P63208 2-163, chain 1 of 2): as the sequence (P63208 2-163, chain 1 of 2) above
Chain of SKP1-FBXO22 heterodimer, wild type, tag-free (UniProt P63208) (Q8NEZ5 12-403, chain 2 of 2, further chain): as the sequence (Q8NEZ5 12-403, chain 2 of 2, further chain) above

For the molecule “BACH1 BTB domain (residues 7-128), wild type, tag-free (from UniProt O14867 7-128) (domain or fragment)”, the Kd (usually the concentration at which binding is half-saturated) is 124 nM and 83.9 nM in [1]; 57.7 nM in data set [3]. The stoichiometry N (in general, the number of molecules, sites or subunits per partner or assembly) in data set [2] turned out to be 2.
Regarding “BACH1^BTB A53V mutant (cancer-associated, TCGA) (from UniProt O14867 7-128) (domain or fragment)”, the stoichiometry N in data set [4] is 2.
Consider “BACH1^BTB E12R (from UniProt O14867 7-128) (domain or fragment)”, for which, in the data set with BACH1^BTB E12R, the stoichiometry N was determined as 2.
On to “BACH1^BTB F9A (from UniProt O14867 7-128) (domain or fragment)”, for which, in the data set with BACH1^BTB F9A, the stoichiometry N amounted to 2.
In the case of “BACH1^BTB S13A (from UniProt O14867 7-128) (domain or fragment)”, in the data set with BACH1^BTB S13A, the stoichiometry N was 2.
“BACH1^BTB S13D (from UniProt O14867 7-128) (domain or fragment)” gave a stoichiometry N with BACH1^BTB S13D of 2.
On to “BACH1^BTB Y11A (from UniProt O14867 7-128) (domain or fragment)”, for which the stoichiometry N with BACH1^BTB Y11A came out at 2.
In the data set with BACH1^BTB Y11F, “BACH1^BTB Y11F (from UniProt O14867 7-128) (domain or fragment)” returned a stoichiometry N of 2.
Regarding “BACH1^BTB Y11H mutant (cancer-associated, TCGA) (from UniProt O14867 7-128) (domain or fragment)”, in data set [5], the stoichiometry N came to 2.
In turn, “BTFA-modified BACH1^BTB (from UniProt O14867 7-128) (domain or fragment)” had a stoichiometry N with BTFA-modified BACH1^BTB of 2.
In the case of “SKP1-FBXO22 heterodimer, wild type, tag-free (from UniProt P63208 2-163; Q8NEZ5 12-403) (complex)”, the stoichiometry N (equivalent SKP1-FBXO22) in data set [6] was 1. In addition, the IC50 – broadly, the concentration at which inhibition is half-maximal – in the data set with His10-TEV-BACH1^BTB came out at 495 nM.

B1: full-length BACH1 (residues 2-736), tag-free (natural protein)
chain: SLSENSVFAYESSVHSTNVLLSLNDQRKKDVLCDVTIFVEGQRFRAHRSVLAACSSYFHSRIVGQADGELNITLPEEVTVKGFEPLIQFAYTAKLILSKENVDEVCKCVEFLSVHNIEESCFQFLKFKFLDSTADQQECPRKKCFSSHCQKTDLKLSLLDQRDLETDEVEEFLENKNVQTPQCKLRRYQGNAKASPPLQDSASQTYESMCLEKDAALALPSLCPKYRKFQKAFGTDRVRTGESSVKDIHASVQPNERSENECLGGVPECRDLQVMLKCDESKLAMEPEETKKDPASQCPTEKSEVTPFPHNSSIDPHGLYSLSLLHTYDQYGDLNFAGMQNTTVLTEKPLSGTDVQEKTFGESQDLPLKSDLGTREDSSVASSDRSSVEREVAEHLAKGFWSDICSTDTPCQMQLSPAVAKDGSEQISQKRSECPWLGIRISESPEPGQRTFTTLSSVNCPFISTLSTEGCSSNLEIGNDDYVSEPQQEPCPYACVISLGDDSETDTEGDSESCSAREQECEVKLPFNAQRIISLSRNDFQSLLKMHKLTPEQLDCIHDIRRRSKNRIAAQRCRKRKLDCIQNLESEIEKLQSEKESLLKERDHILSTLGETKQNLTGLCQKVCKEAALSQEQIQILAKYSAADCPLSFLISEKDKSTPDGELALPSIFSLSDRPPAVLPPCARGNSEPGYARGQESQQMSTATSEQAGPAEQCRQSGGISDFCQQMTDKCTTDE
Regarding B1, in data set [1], the Kd was 44.3 nM and 28.6 nM; the koff (commonly a measure of how fast the partners let go of each other) worked out at 0.0021 s⁻¹; the kon (commonly the second-order rate constant of association) was determined as 470000 M⁻¹ s⁻¹. The “stoichiometry N” value in the data set “mass photometry” was 2. Also, the stoichiometry N (BACH1^FL per SKP1-FBXO22 heterodimer) in data set [7] amounted to 2.
